Test results published in article PMC5906529, “Conserved Bacterial-Binding Peptides of the Scavenger-Like Human Lymphocyte Receptor CD6 Protect From Mouse Experimental Sepsis” (Frontiers in Immunology, 2018).
Where two headings read alike, the source gives them in different places.

Columns and labels:
[1] = biological target: the molecule itself; assay: dynamic light scattering; peptide alone, 10 µg/mL in PBS, 25°C, Zetasizer Nano S; hydrodynamic diameter of the particles in solution
[2] = Solid phase binding assay (ELISA); parameters: species or system S. aureus; conditions: biotin-labeled peptides/proteins 5–20 µg/mL, overnight 4°C, HRP-streptavidin/TMB, OD 405–620 nm
Method: (§1) 96-well microtiter plates (Nunc, Roskilde, Denmark) were coated overnight at 4°C with 5 µg/mL of purified LPS (from E. coli O111:B4, Sigma L2630) or LTA (from S. aureus, Sigma L2515) in PBS and then incubated for 2 h at room temperature in blocking solution (20 mM Tris-HCl pH 7.4 plus 0.05% Tween 20 and 1% BSA). Biotin-labeled peptides/proteins (2.5–20 µg/mL) were added and incubated overnight at 4°C in blocking solution. After extensive washing, bound peptides/proteins were detected by the addition of horseradish peroxidase-labeled streptavidin (1:5,000 dilution; DAKO) for 1 h at room temperature. Color was developed by adding 3,3’,5,5’-tetramethylbenzidine liquid substrate (Sigma) and optical density read at 405–620 nm.
(§2) Figure 3 Analysis of the direct binding characteristics of CD6-derived peptides to purified pathogen-associated molecular patterns (PAMPs) from Gram-negative and Gram-positive origin. […] Following overnight incubation at 4°C bound peptides or proteins were developed by addition of horseradish peroxidase–streptavidin and 3,3’,5,5’-tetramethylbenzidine substrate and further readings at OD 405–620 nm. Results are expressed as mean ± SD of duplicates from one representative experiment of three performed. […] (C) Apparent Kd values and Hill coefficients for the binding of peptides and proteins in study to LPS and LTA determined by tryptophan fluorescence. […]

[3] = Solid phase binding assay (ELISA); parameters: species or system E. coli O111:B4; conditions: biotin-labeled peptides/proteins 5–20 µg/mL, overnight 4°C, HRP-streptavidin/TMB, OD 405–620 nm
Method: as §1, §2

[4] = Endotoxin adsorption on coated Eupergit beads (LAL assay); conditions: peptide/protein immobilized on Eupergit beads, 50 UI/mL LPS, 0–150 min, room temperature, vs HSA- and rshCD5-coated controls, preliminary
Method: CD6.PD1 and CD6.PD2 high affinity (and also CD6.PD3) to LPS and LTA makes these peptides suitable candidates for new supportive non-antibiotic strategies against sepsis. One such possibility would be the adsorption of circulating bacterial toxins by CD6-derived peptides covalently coupled to a solid phase. Preliminary results obtained by incubating an endotoxin solution (50 UI/mL LPS) with Eupergit® beads coated with different CD6-derived peptides (CD6.PD2 and CD6.PD3) or proteins (HSA, rshCD5, and rshCD6) for different periods of time support this approach (Figure S2 in Supplementary Material). […]
Supplementary Figure S1. Binding of rshCD6 protein, and CD6 (CD6.PD1, CD6.PD2, and CD6.PD3) and DMBT-1/SAG (pbs1)-derived peptides to LPS and LTA determined by tryptophan fluorescence. […] Peptide samples (with and without either Re-LPS or LTA) and blank samples (Re-LPS or LT A alone) were ex cited at 295 nm, and the emission spectra recorded from 300 to 400 nm. Results are expressed as the change in peptide fluorescence ( ΔF) at the wavelength of the emission maxima (353 nm for the peptides and 337 nm for rshCD6 protein) in the presence and absence of either Re- LPS or LT A. Results are means ± SD of 3 experiments. Peptide fluorescence changes at 353 nm were fitt ed to the Hill equation. […]

[5] = Intrinsic (tryptophan) fluorescence binding; parameters: species or system S. aureus; conditions: excitation 295 nm, peptide/protein 10 µg/mL in PBS pH 7.2, Hill equation fit, mean ± SD of three experiments, read-out: LTA Kd ± σ (apparent Kd)
Method: (§3) To explore the ability of different peptides/proteins to bind LTA (Mr = 14,000, from S. aureus; Sigma) and rough LPS (Re-LPS, Mr = 2,500, from Salmonella minnesota serotype Re 595; Sigma), binding studies were carried out in an AB2 spectrofluorometer with a thermostated cuvette holder (±0.1°C), using 5 mm × 5 mm path length quartz cuvettes as described ([30]). Re-LPS concentration was assessed by quantification of 2-keto-3-deoxyoctulosonic acid ([31]). Peptide/protein samples (10 µg/mL) were titrated with different amounts of a stock solution of either LTA or Re-LPS in phosphate buffered saline (PBS) pH 7.2, and the Trp fluorescence emission spectra recorded with excitation at 295 nm. The fluorescence intensity readings were corrected for the dilution caused by […]. […] The apparent dissociation constant (Kd) of peptide/protein–ligand complexes were obtained by non-linear least-squares fitting to the Hill equation of the change in peptide fluorescence at 353 nm with the amount of added LTA or Re-LPS ([31]): ΔF/ΔFmax = [L]^n/([L]^n + Kd), where ΔF is the change in fluorescence intensity at 353 nm relative to the intensity of free peptide; ΔFmax is the change in fluorescence intensity at saturating LTA or Re-LPS concentrations; [L] is the molar concentration of free ligand; and n is the Hill coefficient. […]

[6] = Intrinsic (tryptophan) fluorescence binding; parameters: species or system Salmonella minnesota serotype Re 595; conditions: excitation 295 nm, peptide/protein 10 µg/mL in PBS pH 7.2, Hill equation fit, mean ± SD of three experiments, read-out: Re-LPS Kd ± σ (apparent Kd)
Method: as §3

B1: CD6.PD3 peptide (peptide)
peptide: GQVEVHFRGVW
notes: source: synthetic peptide, manufactured by ProteoGenix (>80% purity)
[1]
  binding result: binds

B2: rshCD5: recombinant soluble human CD5 protein, negative control (protein, UniProt P06127 25-372, looked up)
extracellular domain: RLSWYDPDFQARLTRSNSKCQGQLEVYLKDGWHMVCSQSWGRSSKQWEDPSQASKVCQRLNCGVPLSLGPFLVTYTPQSSIICYGQLGSFSNCSHSRNDMCHSLGLTCLEPQKTTPPTTRPPPTTTPEPTAPPRLQLVAQSGGQHCAGVVEFYSGSLGGTISYEAQDKTQDLENFLCNNLQCGSFLKHLPETEAGRAQDPGEPREHQPLPIQWKIQNSSCTSLEHCFRKIKPQKSGRVLALLCSGFQPKVQSRLVGGSSICEGTVEVRQGAQWAALCDSSSARSSLRWEEVCREQQCGSVNSYRVLDAGDPTSRGLFCPHQKLSQCHELWERNSYCKKVFVTCQDPNP
modifications: extracellular domain
notes: recombinant soluble human CD5 protein, negative control
[2]
  Binding to solid-phase bound LTA: no significant binding
[3]
  Binding to solid-phase bound LPS: no significant binding

B3: rshCD6: recombinant soluble human CD6 ectodomain (protein, UniProt P30203 18-402, looked up)
extracellular domain: HPSPAPPDQLNTSSAESELWEPGERLPVRLTNGSSSCSGTVEVRLEASWEPACGALWDSRAAEAVCRALGCGGAEAASQLAPPTPELPPPPAAGNTSVAANATLAGAPALLCSGAEWRLCEVVEHACRSDGRRARVTCAENRALRLVDGGGACAGRVEMLEHGEWGSVCDDTWDLEDAHVVCRQLGCGWAVQALPGLHFTPGRGPIHRDQVNCSGAEAYLWDCPGLPGQHYCGHKEDAGAVCSEHQSWRLTGGADRCEGQVEVHFRGVWNTVCDSEWYPSEAKVLCQSLGCGTAVERPKGLPHSLSGRMYYSCNGEELTLSNCSWRFNNSNLCSQSLAARVLCSASRSLHNLSTPEVPASVQTVTIESSVTVKIENKESRELMLL
modifications: extracellular domain
notes: recombinant soluble human CD6 ectodomain
[4]
  Endotoxin levels after incubation with coated beads: reduced endotoxin levels
[5]
  Kd: 11 ± 4 nM
[2]
  Binding to solid-phase bound LTA: dose-dependent binding
[3]
  Binding to solid-phase bound LPS: dose-dependent binding
[6]
  Kd: 630 ± 10 nM
